Laboratory results as given in article PMC10397247.
Values belong to the binder of their own block, whether it stands above or below them.

Columns and labels:
Test in all cases: two-hybrid library CCNG1;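 further: natural log of median RNA to DNA barcode read ratio; higher means stronger binding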
4H182-bN = biological target: T1, 4H182-bN
T1 chain: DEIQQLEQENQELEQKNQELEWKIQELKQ

4H2134-bN = biological target: T2, 4H2134-bN
T2 chain: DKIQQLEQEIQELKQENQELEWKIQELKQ

4H2143-bN = biological target: T3, 4H2143-bN
T3 chain: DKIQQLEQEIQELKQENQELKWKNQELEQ

4H2223-bN = biological target: T4, 4H2223-bN
T4 chain: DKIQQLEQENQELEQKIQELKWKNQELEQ

4H2438-bN = biological target: T5, 4H2438-bN
T5 chain: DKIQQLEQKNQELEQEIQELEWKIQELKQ

4H2473-bN = biological target: T6, 4H2473-bN
T6 chain: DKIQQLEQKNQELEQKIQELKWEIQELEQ

4H2503-bN = biological target: T7, 4H2503-bN
T7 chain: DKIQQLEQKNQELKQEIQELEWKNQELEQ

4H2588-bN = biological target: T8, 4H2588-bN
T8 chain: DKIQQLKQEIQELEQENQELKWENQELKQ

4H2692-bN = biological target: T9, 4H2692-bN
T9 chain: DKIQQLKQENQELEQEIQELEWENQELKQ

4H2717-bN = biological target: T10, 4H2717-bN
T10 chain: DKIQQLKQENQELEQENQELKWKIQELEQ

4H2839-bN = biological target: T11, 4H2839-bN
T11 chain: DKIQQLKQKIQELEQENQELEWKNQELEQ

4H2915-bN = biological target: T12, 4H2915-bN
T12 chain: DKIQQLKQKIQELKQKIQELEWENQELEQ

4H3057-bN = biological target: T13, 4H3057-bN
T13 chain: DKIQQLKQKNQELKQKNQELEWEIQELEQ

4H319-bN = biological target: T14, 4H319-bN
T14 chain: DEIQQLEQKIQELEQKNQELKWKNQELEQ

4H3277-bN = biological target: T15, 4H3277-bN
T15 chain: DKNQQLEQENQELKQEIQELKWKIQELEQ

4H348-bN = biological target: T16, 4H348-bN
T16 chain: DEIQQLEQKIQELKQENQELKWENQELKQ

4H40-bN = biological target: T17, 4H40-bN
T17 chain: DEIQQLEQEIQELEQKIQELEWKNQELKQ

4H462-bN = biological target: T18, 4H462-bN
T18 chain: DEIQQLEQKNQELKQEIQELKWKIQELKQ

4H477-bN = biological target: T19, 4H477-bN
T19 chain: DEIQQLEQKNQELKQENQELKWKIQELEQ

4H492-bN = biological target: T20, 4H492-bN
T20 chain: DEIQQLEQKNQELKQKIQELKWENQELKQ

4H575-bA = biological target: T21, 4H575-bA
T21 chain: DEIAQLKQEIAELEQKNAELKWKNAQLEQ

4H741-bN = biological target: T22, 4H741-bN
T22 chain: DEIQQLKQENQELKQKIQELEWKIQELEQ

4H908-bN = biological target: T23, 4H908-bN
T23 chain: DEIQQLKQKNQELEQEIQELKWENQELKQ

4H2696-bA = biological target: T24, 4H2696-bA
T24 chain: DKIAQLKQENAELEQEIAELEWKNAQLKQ

4H2883-bA = biological target: T25, 4H2883-bA
T25 chain: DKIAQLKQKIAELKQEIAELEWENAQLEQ

4H2937-bA = biological target: T26, 4H2937-bA
T26 chain: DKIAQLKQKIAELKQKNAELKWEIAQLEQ

4H2944-bA = biological target: T27, 4H2944-bA
T27 chain: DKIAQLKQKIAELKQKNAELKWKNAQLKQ

4H342-bA = biological target: T28, 4H342-bA
T28 chain: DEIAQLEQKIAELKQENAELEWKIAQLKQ

4H48-bA = biological target: T29, 4H48-bA
T29 chain: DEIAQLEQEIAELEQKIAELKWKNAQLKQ

4H491-bA = biological target: T30, 4H491-bA
T30 chain: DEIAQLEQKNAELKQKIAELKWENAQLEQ

interaction score (4H182-bN): -0.13
interaction score (4H2134-bN): -0.568
interaction score (4H2143-bN): -0.437
interaction score (4H2223-bN): -0.0217
interaction score (4H2438-bN): -0.143
interaction score (4H2473-bN): -0.481
interaction score (4H2503-bN): -0.284
interaction score (4H2588-bN): -0.916
interaction score (4H2692-bN): 0.536
interaction score (4H2717-bN): 0.137
interaction score (4H2839-bN): 0.367
interaction score (4H2915-bN): 0.186
interaction score (4H3057-bN): 2.24
interaction score (4H319-bN): -0.552
interaction score (4H3277-bN): -0.0991
interaction score (4H348-bN): -0.689
interaction score (4H40-bN): 0.0984
interaction score (4H462-bN): -0.134
interaction score (4H477-bN): -1.61
interaction score (4H492-bN): 0.471
interaction score (4H575-bA): -2.96
interaction score (4H741-bN): -0.228
interaction score (4H908-bN): -2.24
Binder: DEIQQLEQENQELEQKNQELEWKIQELKQ [4H182-bN]

interaction score (4H2696-bA): -0.668
interaction score (4H2883-bA): 0.674
interaction score (4H2937-bA): 0.659
interaction score (4H2944-bA): 0.173
interaction score (4H342-bA): -0.319
interaction score (4H48-bA): -0.267
interaction score (4H491-bA): 1.93
Binder: DKIAQLKQENAELEQEIAELEWKNAQLKQ [4H2696-bA]
